Article PMC3630103

B1: CHK-152 (mouse monoclonal antibody) (antibody, V domains shown)
VH: QVQLQQPGAALVKPGASAMMSCKASGYTFTSYWITWVKQRPGQGLEWIGDIYPGTGRTIYKEKFKTKATLTVDTSSSTAFMQLNSLTSEDSAVYYCARGYGSPYYALDYWGQGTSVTVSS
VL: DIVLTQSPASLAVSQGQRATISCKASQSVDYDGDSYVNWYQQKPGQSPKLLIYDASNLESGIPARFSGSGSGTDFTLNIHPVEEEDVATYYCQESNEDPRTFGGGTKLEIK
B2: CHK-166 (mouse monoclonal antibody) (antibody, V domains shown)
VH: EVRLVESGGGLEQPGGSLKLSCAASGFTFSDYFMYWVRQTPEKRLEWVAYISNGGISTFYSDAVKGRFTISRDNARNTLYLQMSRLKSEDTAIYYCVRQVYGQGYFDYWGQGTTLAVSS
VL: QIVLIQSPAIMSASLGERVTMTCTASSSVSSSYLHWYQQKPGSSPKLWIYSSFSLASGVPARFSGSGSGTSYSLTISTMEAEDAATYYCHQYLRSPWTFGGGSKLEIK
B3: CHK-263 (mouse monoclonal antibody) (antibody, V domains shown)
VH: QVQLQQSGAELVKPGASVKISCKASGYAFSSYWMNWVKQRPGKGLEWIGQIYPGDGDTNYNGKFKGKATLTADKSSSTAYMQLSSLTSEDSAVYFCARGGLTIDYWGQGTTLTVSS
VL: DIVLTQSPATLSVTPGDSVSLSCRASQSISDNLHWYQQKSHESPGLLIKYASQSISGIPSRFSGSGSGTDFTLSINSVETEDFGMYFCQQSNSWPYTFGGGTKLEIK
B4: CHK-102 (mouse monoclonal antibody) (antibody, V domains shown)
VH: QVQLQQSGAELVKPGASVKISCKTSGYAFSSFWMHWVKQRPGKGLEWIGQIYPGDGDTNYNGKFKDKATLTADKSSNTAYMQLTSLTSEDSAVYFCARNLLFDYWGQGTTLTVSS
VL: EILMTQSPAILSVSPGERVSFSCRASQSIGSNIHWYQQRTNGSPRLLIKYASESISGIPSRFSGSGSGTDFTLSINSVESEDIADYYCQQNNIWPFTFGSGTKLEIK

target: CHIKV-RSU1 virus (Asian genotype), envelope glycoproteins E2-E1 (Chikungunya virus (strain RSU1))

Row | Binder | EC50 of neutralisation of CHIKV-RSU1 (FRNT on Vero cells) [µg/mL] | EC90 of neutralisation of CHIKV-RSU1 (FRNT on Vero cells) [µg/mL]
1 | B1 | 0.003 | 0.015
2 | B2 | 0.04 | 2.18
3 | B3 | 0.004 | 0.048
4 | B4 | 0.005 | 1.32

target: CHIKV-IbH35 virus (West African genotype), envelope glycoproteins E2-E1 (Chikungunya virus (strain IbH35))

Row | Binder | EC50 of neutralisation of CHIKV-IbH35 (FRNT on Vero cells) [µg/mL] | EC90 of neutralisation of CHIKV-IbH35 (FRNT on Vero cells) [µg/mL]
5 | B1 | 0.001 | 0.006
6 | B2 | 0.082 | 2.58
7 | B3 | 0.002 | 0.051
8 | B4 | 0.006 | 0.104
